Test: soluble fraction after stress (log2 fold change); higher = more stays soluble; pooled small domains, quantitative proteomics
Conditions: stress: pH 4
Summary of the method: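 Aggregation propensity is read out as the fold change in how much of each domain remains soluble after acid stress. The custom small-domain libraries were pooled, held at pH 4 and analysed with high-throughput quantitative proteomics. On the log2 scale used, higher values mean more of the domain stayed soluble.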

| Sequence | soluble fraction (log2) |
| --- | --- |
| HMKEQIKVPDLSNKTPEEAKKELNTLGLGARKGGEESSDTVEEGLITRQEPAAGEQVDKNTQILFYVSTGK | 0.0545 |
| HMKEQLLLGFKVRSLRGIDLGFVKFIEGSAFQSFLKTDLTIIPNVPNYVKKIDNVKKIILVDWESD | -1.54 |
| HMKEQYTELDWDKVQVNDKVMIKDLNQQVTILSLPDKNNALYIQMGMIKTKVKKEKLAVYNPQLA | -0.103 |
| HMKERVSWDERLERFAKHITENESLPYPSSKEYAWFEENKALYDAGELEPVRAQSFAFLLKIMRRMNL | 0.0752 |
| HMKETIIPELLQNELDKNSELNDKFNTFSPYKQREFIEYIITAKQEKTQISRLQKVILMILEGRGLNN | -0.491 |
| HMKEVELENMIKAKGFKDAAVLVDERSVTVIVESERLAAGDSASIKELVSRGTGVDPQNVVII | -0.295 |
| HMKEYPEVITTSRLNVRTGPGTGYQRLGTLDQNLRVLVLTRQQGWAQIRGMLNGETVIGWVNDYYLQAID | -0.259 |
| HMKFINISIDKSGNLFINKKSIKFQDLKYNVVNLVDESKNLVVLNADENISHGYVISVLDVLRSIDGLKLA | -0.802 |
| HMKFNEKQNEVRIAIMNFIIDNKRPFHMKQDGYDALEGITLSGRHEFQDILDVLHSRDGFSADEEGNINF | -1.69 |
| HMKFPIITAKQDSDGKFYWAQTTDKGKTYTFILDGDGKKFPIGGTMPDVKINENGYWSVNGSSTGVLANDL | -0.295 |
| HMKFSVEEQFKKSFPKNTYETFSETSLKGVYEVYNGKQVYYYLPVNDVLLLGSIVTKDGKNLTQESNSKK | -0.0849 |
| HMKGIVFTEFLDLVEERFGLEMVDAIISQSKLESKGVYTSIGTYSFSELLQLLQNLKIQTGISIDNLLLI | -1.51 |
| HMKGKIYFFEEGVDRVGGVERVISTLANEFSKKYKVNVISFYKTRKETFFKYNSDIDITYLSK | -0.264 |
| HMKGLDRATNKALLLKHIIDNGSTGTRFSELRQVLPSLTRGSISSLLIELRSEGKIHSIGVTRNARWYPTE | -0.309 |
| HMKGLKERLLYFIEYKGLPVQMFEKIVGLSNAAVSKMGDNTRRSTIDKISKSFPELDVNWLLTGQGEMLSY | 0.296 |
| HMKGPAFAKIDLTQLPAGLTSFLNTNAAGFKLDYAVAITKDSVIIEYHVGVTIGTAKKEFHLDPNFQLLP | -0.1 |
| HMKGPLKDLGPDPVTGKSILVKDGKFGTYVTDGETNATLRRGDIVELLTLERGMELLAEKRARATQ | -0.0516 |
| HMKGTVKFFNESKGFGFITEEGTNKEHFVHVSGLVDEIRENDEVEFDLQDGRKGLNAVNVRV | 0.0618 |
| HMKGVENLSDIDIQKALNNARANLSKNKAKLEQAGDDEKKKASALAMIQKWETTKKAIEEEIEARKKKSLN | -0.088 |
| HMKHAIKEKIRNEYVHGYLNEEGYRVMPTLDELIRKYEVPASSTYRASSKEGWKKQKEAFLEHLRGEIDA | -0.0601 |
| HMKHFFIIAGGKIEDAFAIEVLKGFAEKTVIAADSGMEFLRRNEIVPQVIIGDFDSVSKETLEWFQKK | 0.22 |
| HMKHKGILTTWNDDRGFGFITPKEGKEPVFVHISAFARGQGRPVLNASLTYRLVRDDQQRPRAEAVRL | 0.189 |
| HMKHKHHIIPKHKGGTDHPDNLIELTVEQHAKAHWVEFMLDGREEDYWAWKGLEGVASKKDIIYALSKR | -0.313 |
| HMKHSEAIELGKRMLSQALQDVSLVLKKIPEERLQAVAAELNLKTPDELFEKIGLGERLAALVARRLLP | 0.0472 |
| HMKHTQTDEGELLSTLRTLFPNSSSSSLRKMLTQGRILVNQEVVHRAKHALQAGDEIEVLARQ | 0.0825 |
| HMKHVDLDNNERYIYGIIGSTKIHVDEVVEKSGMETKHVMAILTNLELKEAIKGIPGGFYLR | -1.19 |
| HMKHVENLSDEKTIQAIQENPYMQYLLGLSKFTEKPVFVPELFVLIRKRLDQDFFNMLTLILAEADG | -0.778 |

Source: the domain aggregation screens of Martell et al. (2025)
